Measured values from patent KR20190132616A (dated 2019).

Experiments:
[1] = target: T1, 재조합 hAng-2 (C-His, R&D Systems) (human, UniProt O15123 19-496); experiment: SPR, BIAcore T100; hAng-2 (C-His) captured by anti-His antibody on CM5 chip, antibody flowed from 100 nM in 2-fold dilutions
T1 construct: Bought protein; also called 인간 Ang-2 단백질
T1 sequence: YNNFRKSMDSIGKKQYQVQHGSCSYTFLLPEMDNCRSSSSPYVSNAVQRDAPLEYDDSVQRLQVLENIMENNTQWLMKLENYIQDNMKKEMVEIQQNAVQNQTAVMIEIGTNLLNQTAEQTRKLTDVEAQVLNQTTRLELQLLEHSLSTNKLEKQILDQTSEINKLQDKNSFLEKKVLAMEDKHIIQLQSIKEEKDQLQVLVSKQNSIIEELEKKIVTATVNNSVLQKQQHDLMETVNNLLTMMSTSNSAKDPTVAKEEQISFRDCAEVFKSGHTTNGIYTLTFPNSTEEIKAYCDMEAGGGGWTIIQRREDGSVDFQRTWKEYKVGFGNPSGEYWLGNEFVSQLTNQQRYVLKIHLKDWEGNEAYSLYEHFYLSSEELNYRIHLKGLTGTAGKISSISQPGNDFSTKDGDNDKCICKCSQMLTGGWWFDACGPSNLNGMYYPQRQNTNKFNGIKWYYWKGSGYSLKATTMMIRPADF

[2] = target: Mutant Ang2 A449 (alanine), FLAG-tagged (human) (UniProt O15123); experiment: ELISA, antibody coated (1000nM), FLAG-Ang2 mutant 250ng, anti-FLAG-HRP, OD450 against native Ang2
[3] = target: Mutant Ang2 Q418 (alanine), FLAG-tagged (human) (UniProt O15123); experiment: as above
[4] = target: Mutant Ang2 F469 (alanine), FLAG-tagged (human) (UniProt O15123); experiment: as above
[5] = target: Mutant Ang2 Y460 (alanine), FLAG-tagged (human) (UniProt O15123); experiment: as above
[6] = target: Mutant Ang2 N467 (alanine), FLAG-tagged (human) (UniProt O15123); experiment: as above
[7] = target: Mutant Ang2 N421 (alanine), FLAG-tagged (human) (UniProt O15123); experiment: as above
[8] = target: Mutant Ang2 D448 (alanine), FLAG-tagged (human) (UniProt O15123); experiment: as above
[9] = target: Mutant Ang2 I434 (alanine), FLAG-tagged (human) (UniProt O15123); experiment: as above
[10] = target: Mutant Ang2 P419 (alanine), FLAG-tagged (human) (UniProt O15123); experiment: as above
[11] = target: Mutant Ang2 K468 (alanine), FLAG-tagged (human) (UniProt O15123); experiment: as above
[12] = target: Mutant Ang2 P452 (alanine), FLAG-tagged (human) (UniProt O15123); experiment: as above
[13] = target: Mutant Ang2 S417 (alanine), FLAG-tagged (human) (UniProt O15123); experiment: as above
hTie2-Fc (R&D Systems) = target: T2, hTie2-Fc (R&D Systems) (human, UniProt Q02763 23-745); experiment: complex ELISA: Tie2-Fc coated, Ang2 0.25 ug/ml and 10D6 2 ug/ml added, anti-mouse IgG-HRP
T2 construct: Bought fusion protein, coated on the plate; also called hTie-2/Fc 융합 단백질; not shown: Fc of human IgG1
T2 sequence (Q02763 23-745 limits assumed): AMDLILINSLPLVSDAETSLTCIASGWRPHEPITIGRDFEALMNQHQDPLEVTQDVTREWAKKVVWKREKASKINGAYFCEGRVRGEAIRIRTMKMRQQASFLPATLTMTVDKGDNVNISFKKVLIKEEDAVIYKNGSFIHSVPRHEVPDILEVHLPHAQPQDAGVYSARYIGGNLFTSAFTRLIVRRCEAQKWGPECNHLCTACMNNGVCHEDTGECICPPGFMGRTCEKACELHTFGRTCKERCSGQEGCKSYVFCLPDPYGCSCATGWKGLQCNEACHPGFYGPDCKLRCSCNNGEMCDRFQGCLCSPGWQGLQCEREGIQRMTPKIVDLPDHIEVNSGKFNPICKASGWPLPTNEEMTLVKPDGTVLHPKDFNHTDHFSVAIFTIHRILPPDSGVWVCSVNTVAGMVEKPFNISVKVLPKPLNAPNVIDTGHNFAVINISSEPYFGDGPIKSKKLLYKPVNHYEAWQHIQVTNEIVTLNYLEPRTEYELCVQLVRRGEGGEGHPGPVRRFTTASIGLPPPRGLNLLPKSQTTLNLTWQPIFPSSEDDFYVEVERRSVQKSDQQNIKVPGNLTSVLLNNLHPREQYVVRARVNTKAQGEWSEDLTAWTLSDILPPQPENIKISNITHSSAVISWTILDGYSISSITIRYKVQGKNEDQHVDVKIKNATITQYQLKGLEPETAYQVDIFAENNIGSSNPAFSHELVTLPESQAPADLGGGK

B1: SAIT-ANG2-AB-m10D6 (antibody, V domains shown)
VH: DVQLQESGPGLVKPSQSLSLTCTVTGYSITSDYAWNWIRQFPGNKLEWMGYINYSGNTDYNPSLKSRSSITRDTSKNQFFLQLNSVTTGDTATYYCARGNFEGAMDYWGQGTSVTVSS
VL: SIVMTQTPKFLLVSAGDRVTITCKASQSVSNDVAWYQQKPGQSPKLLIYYASNRYPGVPDRFTGSGYGTDFTFTISTVQAEDLAVYFCQQDYSSPWTFGGGTKLEIK
notes: also called 10D6 항체; 10D6 anti-Ang2 항체
Q: How did the Kd [1] turn out when B1 was run?
A: The Kd was 8 nM.

Q: What about the native Ang2와의 결합력에 대한 Mutant Ang2 와의 결합력(%) [2] of the same binder?
A: The native Ang2와의 결합력에 대한 Mutant Ang2 와의 결합력(%) was 97.9%.

Q: What about the native Ang2와의 결합력에 대한 Mutant Ang2 와의 결합력(%) [3] of the same binder?
A: The native Ang2와의 결합력에 대한 Mutant Ang2 와의 결합력(%) was 38.9%.

Q: What about the native Ang2와의 결합력에 대한 Mutant Ang2 와의 결합력(%) [4] of the same binder?
A: Its native Ang2와의 결합력에 대한 Mutant Ang2 와의 결합력(%) is 109%.

Q: And the native Ang2와의 결합력에 대한 Mutant Ang2 와의 결합력(%) [5]?
A: The native Ang2와의 결합력에 대한 Mutant Ang2 와의 결합력(%) was 103%.

Q: And the native Ang2와의 결합력에 대한 Mutant Ang2 와의 결합력(%) [6]?
A: Its native Ang2와의 결합력에 대한 Mutant Ang2 와의 결합력(%) is 107%.

Q: And the native Ang2와의 결합력에 대한 Mutant Ang2 와의 결합력(%) [7]?
A: Its native Ang2와의 결합력에 대한 Mutant Ang2 와의 결합력(%) is 109%.

Q: What about the native Ang2와의 결합력에 대한 Mutant Ang2 와의 결합력(%) [8] of the same binder?
A: The native Ang2와의 결합력에 대한 Mutant Ang2 와의 결합력(%) was 105%.

Q: What about the native Ang2와의 결합력에 대한 Mutant Ang2 와의 결합력(%) [9] of the same binder?
A: Its native Ang2와의 결합력에 대한 Mutant Ang2 와의 결합력(%) is 109%.

Q: What about the native Ang2와의 결합력에 대한 Mutant Ang2 와의 결합력(%) [10] of the same binder?
A: Its native Ang2와의 결합력에 대한 Mutant Ang2 와의 결합력(%) is 41.1%.

Q: And the native Ang2와의 결합력에 대한 Mutant Ang2 와의 결합력(%) [11]?
A: Its native Ang2와의 결합력에 대한 Mutant Ang2 와의 결합력(%) is 110%.

Q: What about the native Ang2와의 결합력에 대한 Mutant Ang2 와의 결합력(%) [12] of the same binder?
A: Its native Ang2와의 결합력에 대한 Mutant Ang2 와의 결합력(%) is 102%.

Q: And the native Ang2와의 결합력에 대한 Mutant Ang2 와의 결합력(%) [13]?
A: Its native Ang2와의 결합력에 대한 Mutant Ang2 와의 결합력(%) is 101%.

B2: Ang2 단백질(R&D systems) (ligand)
chain: T1 sequence
notes: also called 인간 Ang2 단백질 (R&D systems; 623-AN-025/CF)
Q: Does B2 bind (hTie2-Fc (R&D Systems))?
A: Result: binds
